In IntAct's records for PubMed 36753016:

Target: ubp18_human USP18 (UniProt Q9UMW8)
Sequence (Q9UMW8 whole entry): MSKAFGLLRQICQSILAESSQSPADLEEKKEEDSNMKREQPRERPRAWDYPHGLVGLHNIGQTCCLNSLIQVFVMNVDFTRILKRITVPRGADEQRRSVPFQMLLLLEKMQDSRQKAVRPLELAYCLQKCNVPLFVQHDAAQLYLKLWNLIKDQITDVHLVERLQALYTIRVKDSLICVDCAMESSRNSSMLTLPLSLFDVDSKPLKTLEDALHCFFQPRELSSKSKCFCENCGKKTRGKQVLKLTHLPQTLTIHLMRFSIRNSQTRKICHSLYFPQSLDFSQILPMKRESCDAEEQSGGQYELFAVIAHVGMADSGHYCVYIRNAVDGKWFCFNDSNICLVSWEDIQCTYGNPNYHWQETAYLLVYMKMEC

Substance: Signal transducer and activator of transcription 2 (Homo sapiens), P52630 A219V
- effect of a mutation on the interaction: decreasing interaction strength
